Laboratory results reported in the nanobody polyreactivity screen of Harvey et al. (2022).

assay: yeast display, Sf9 membrane polyspecificity reagent, FACS + sequencing; frameworks hold sequencing errors
How it was run: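 Genes from sorted yeast were amplified by colony PCR, read by MiSeq 2 × 250 sequencing and filtered on CDR length. These cells carried a synthetic nanobody library in Saccharomyces cerevisiae BJ5465 and were sorted by FACS into low and high (top ~1%) gates on anti-HA and streptavidin fluorescence. Polyreactivity is labelled according to the gate of origin.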

Sequence	polyreactivity (PSR sort gate)
QVQLVESGGGLVQAGGSLRLSCAASGSTIPGNAMGWYRQAHGKERELVASISGGGDSTYYADSVKGRFTISRDNAKNTVYLQMKSLKPEDTAVYYCAADYRQEPGYTGYYYLGQGTQVTVSS	low polyreactivity
QVQLVESGGGLVQAGGSLRLSCAASGRTFFYYKMGLSRQAPGKESELVATISWRGGSTYYADSVKGRFTISRDNAKNTVYLHINSLNPEDTSVFYCAARYRSRFDSWGQGSQVTVSS	high polyreactivity
QVQLLESGGGLVQAGRSLRLSCAASGSIFWYAMGWYRQAPGKERELVATITSGASTTYADSVKGRFTISRDNAKNTVYLQMNSLNPEDTAVYYCAKRNYLSYRYDYWGQGTQVNVSS	low polyreactivity
QVQLVESGGGLVQAGGSLRLSCAASGRTFQVYTMGWYRQAPGKERELVAAISRSGGSTYYADSVKGRFTISRDNAKNTVYLQMNSLKPEDTAVYYCAAVPGWLTSRYYYWGQGTQVTVSS	high polyreactivity
QVQLVESGGGLVQAGGSLRLSCAASGLIFSRNAMGWYRQAPGKERELVAAISGGGGSTYYADSVKGRFTISRDNAKNTVYLQMNSLKPEATAVYYCAAKGYWWLTPWIATYDYWGQGTQVTVSS	high polyreactivity
QVHLVESGGGLVQAGGSLRLSCAASGSIFGTNALGWYRQAPGKERELVAAINWSGGTTYYADSVKGRFTISRDNAKNTVYLQMNTLKPEDTAVYYCATFFFVLPPTRFDSWGQGTQVTVSS	low polyreactivity
QVQLVESGGGLVQAGGSLRLSCAASGLIFRVNAMGWYRQAPGKERELVADINSGGGTSYADSVKGRFTISRDNAKNTVYLQMNSLKPEDTAVYYCAAAWWPYSYPTYYSQYDYWGQGTQVTVSS	low polyreactivity
QVQLVESGGGLVQAGGSLRLSCAASGSTFYRNVMGWYRQAPGKERELVAAISASGGSTYYADSVKGRFTISRDNAKNTVYLQMNSLKPEVTAVYYCAVDNRQYRYLYYYWGQGSQVTVSS	high polyreactivity
QVQLVESGGGLVQAGGSLRLSCAASGFIFFYYAMGWYRQAPGKERELVAAISASGGSTYYADSVKGRFTMSRDNAKNTVYLQMNSLKPEDTAVYYCATDPISRARLYGQRDYWGQGTQVTVSS	high polyreactivity
QVQLVESGGGLVQAGGSLRLSCAASGRIFSGYAMGWYRQAPGKERELVAAITSRSGSTYYADSVKGRFTISRDNAKNTVYLQMNSLKPEDTAVYYCAAEYVRFYWYTSDYWGQGTQVTVSS	low polyreactivity
QVQLVESGGGLVQAGGSLRLSCAASGSIFRAYAMGWYRQAPGKERELVAAITGNGARTYYADSVKGRFTISRDNAKNTVYLQMNSLKPEDTAVYYCAKRGNRQHRWWYDYWGQGTQVTVSS	low polyreactivity
QVQLVESGGGLVQAGGSLRLCCAASGSNFRRNAMGLYRQAPGKERELVAAMSWTSTRTYYADSVKVRFTISRDNAKNTVYLQMNSLKPEDTAVYYCAADSNGGGFQLYSYDSGLYYWGQGTQVTVSS	high polyreactivity
QVHLVESGGGLVQAGGSLRLSCASSGSIFRWYAMGWYRPAPGKERELVAAISTSGGNTYYADSVKGRFTISRDNAKNTVYLQMNSLKPEDTAVYYCNALWYRSLSYRYDYWGQGTQVTVSS	high polyreactivity
QVQLVESGGGLVQAGGSLRLSCAASGIIFHFNDMGWYRQAPGKERELVAAIDSTGSTNYADSVKGRFTISRDNAKNTVNLQMNSLKPEDTAVYYCAADWTLDPSYGYYADDYWGQGTQVTVSS	low polyreactivity
QVQLVESGGGLVQAGGSLRLSCAASGSNLYKYAMGWYRPAPGKERELVASITWSDGNTNYADSVKGRFTISRHNAKNTVYLQMNSLKPEDTAVYYCAADWRYILRGDDYWGQGTQVTVSS	low polyreactivity
QVQLVESGGGLVQAGGSHRFSCGASGSTSTYYAMGCYRQAPGTERELVAAISSGGSTNYADSVKGRFTISRDNAKNTVYLKMNSLKPEETAVYYCATDSGDGEGDYWGQGTQVTVSS	low polyreactivity
QVQLVESGVGLVQAGGSLRLSCAAYGSTFVSNAMGWDRQAPGKERELVAAISTSGGSTYYADSVKGRFTISRDNAKNTVYLQMNSLKPEDTAVYYCAKLLARGFRIWQDYDYWGQGTQVTVSS	low polyreactivity
QVQLVESGGGLVQAGGSLRLSCAASGSIFYYNTMGWYRQAPGKERELVAAISRSGTSTFYADSVKGRFTISRDYAKNTVYLQMNSLKPEDTAVYYCNAESLGWYRLYTVDYWGQGTQVTVSS	low polyreactivity
QVQLVESGGGLVQAGGSLRLSCAASGSTFTSNTRWYRPAPGKERELVAAISSSGRTYYADSVKGRFTISRDNAKNTVYLQMNSLKPEDTAVYYCAARGREFGYWGQGTQVTVSS	high polyreactivity
QVQLVESGGGLVQAGGSLRLSCAASGIIFPEYDMGWYRQAPGKERELVAAITKSDGRTYYADSVKGRFTISRDNAKNTVYLQMNSLKPEDTAVYYCNADPRVVAYLGFDSWGQGTQVTVSS	low polyreactivity

Sequence	polyreactivity (PSR sort gate)
QVQLVESGGGLVQAGGSLRLSCAASGSISSGYTMGWYRQAPGKERELVASIRSGGSTYYADSVKGRFTISRDNAKNTVYLQMNSLKPEDTAVYYCAARFFYRYSWGRTRGYDYWGQGTQVTVSS	high polyreactivity
QVQLVESGGGLVQAGGSLRLSCAASGRIFSGYTMGWYRQAPGKERELVAAIRVGGGRTYYADSVKGRFTISRDNSKNTVYLQMYSLKPEDTAVYYCAKLYIRHGYDYWGQGTQVTVSS	low polyreactivity
QVKLVESGGALVQAGGSLRLSCAASGRNFSSYAMGRYRQAPGKERYLVARISSSGGGTSYADSVKGRFTISRDNAKNTVYLQMNSLKPEDTAVYYCAAEDQYYRYFFSYEYWGQGTQVTVSS	high polyreactivity
QVKLVESGGGLVQAGGSLRLTCAASGIIFSWYAMGWYRQAPGKERELVAAISWSGGRTYYADSVKGRFTISRDNAKNSFYLQMNSLKPEDTAVYYCAAERNLFSHWEARYFWGQGTQVTVSS	high polyreactivity
QVQRVESGGGLVQAGASLRLSCAASGGIFYRNAMLWYRQAPGKERELVAAISRRAGSTYYADSVKGRFTISRDNAKNTVYLQMNSLKPEDTAVYYCARRVVNVGDADREYWGQGTQVTVSS	high polyreactivity
QVQLVESGGGLVQAGGSLRLSCAASGRTFYRNAMGWYRQAPGKERELVATITRRGGSTYYADSVKGRFTISRDNAKNTVYLQMNSLKPEDTAVYYCAAGSKDLYRPYDYWGQGTQVTVSS	high polyreactivity
QVQLVESGGGLVQAGGSLRLSCAASGFTFPWYAMGWYRQAPGKERELVAALTGSGGSTDYADSVKGRFTISRDNAKNTVYLQMNSLKPEDTAVYYCNAGKTIDYRDGVGYDHWGQGTQVTVSS	low polyreactivity
HVQLVESGGGLVQAGGSLRLSCAASGRNYYTYTMGRSRQAPGKEKQLVATITVGTRTNYADSVKGRFTISRDNAQNTVYLQMNSLKRVDTAVYYCNAEWSSKRFTGDDYWGQGTQVTVSS	low polyreactivity
QGQLVESGGGLVQAGGSLRLSCAASGSTFTIYVMGWYRQAPGKERELVAGISWSGGSTYYTDSVKGRFTISRDNAKNTVYLQMNSLKPEDTAVYYCNADAQWSVWSYIIDYDYWGQGTQVTVPS	low polyreactivity
QVQLVESGGGLVQAGGSLRLSCAASGSIFWVNGMGWYRQAPGKERELVAAITWSGGSTYYADSVKGRFTISRDNAKNTVYLQMNSLKPEDTAVYYCAAYCQYYLWDGYGYWGQGTQVTVSS	low polyreactivity
QVQLEESGGGLVQAGGSLRLTCAASGFTINEYAMGRYIQAPGKERELVAAISRGGTTYYADSVKGRFTISRDNAKNTVYLQMNSLKPEDTAVYYCAAPYFWNTEMDYWGQGTQVSVSS	low polyreactivity
QVQLVESGGGLVQAGGSLRLSCAASGSTFPLYAMGWYRQAPGKERDLVAAITSGGGNTYYADSVKGRFTISRDNAKITVYLQMNSLKPEDTAVYSCAAVGGYKSYYSYEYDYWGQGTQVTVSS	low polyreactivity
QVQLVESGGGLVQAGGSLRLSCAASGSIFLRYAMGWYRQAPGKERELVAAITSSGGSTYYADSVKGRFTISRDNAKNTLYLQMNSLKPEDTAVYYCNRYSYLFPYYWKYDYWGQGTQVTVSS	high polyreactivity
QVQLVESGGGLVQAGGSLRLSCAASGFTFEGYAMGWYRQAPGKERDLVAAISSNGGRTYYADSVKGRFTISRDNAKNPVYLQMNSLKPEDTAVYYCNADGYGDYSFLKYRFEYDYWGQGTQVTVSS	low polyreactivity
QVQLVESGAGLVQAGGSLRLSCAASGLTFDYYAMGWYRQAPGKEREFVAAITRRGGGTYYADSVKGRFTISRDNAKNTVYLQMNSLKPEDTAVYYCAAYGCGNRWYSRFDYWGQGTQVTVSS	high polyreactivity
QVQLVESGGGLVQAGGSLRLSCAASGFIFKPYDMGWYRQARGKERELVAAISWTGTSTYYADSVKGRFTISRDNAKNTVYLQMNSLKPEDTAVYYCAADFYGGFAHEYWGQGTQVTVSS	low polyreactivity
QVQLVESGGGLVQAGGSLRLSCAASGRIFRYNAMGWYRQAPGKERELVATISRGGGSTYYADSVKGRFTISRDNAKNTVYLQMNSLKPEDTAVYYCAAVGYYLVKFDYWGQGTQVTVSS	high polyreactivity
QVHLVESGGGLVQAGGSLRLSCAASGRNFGYNAMGWYRQAPRKEREFVASISSSGGLTYYSDSVKGRFTISRDNAKNTVYLQMNSLKPEDSAFYDCARQGYYLYSKYDYWGQGTQVTVSS	high polyreactivity
QVQLVESGGGLVQAGGSLRLSCAASGSIIRNAMGWYRQAPGKERELVAAINWSGGSTYYADSVKGRFTISRDNAKNTVYLQMNSLKPEDTAVYYCNKVRGTVHATRRNGDYWGQGTQVTVSS	high polyreactivity
QVQLVESGGGLVQAGGSLRLSCAASGNIFYAYDMGWYRQAPGKERELVAAITNGDSTDYADSVKGRFTISRDNAKNTVYLQMNSLKPEDTAVYYCNAYYLPEPWALGGSQYDYWGQGTQVTVSS	low polyreactivity
